Read-outs that look alike come from different tables or passages of the source. Positions of bridges follow the written chain, without caps; N, C: chain ends. Non-standard residues stand in square brackets, D forms with d. No end group written: not given here. dCit = NC(=O)NCCC[C@@H](N)C(=O)O; Nle = CCCC[C@H](N)C(=O)O
Legend:
[1] = biological target: T1, human MCH-1R (human, UniProt Q99705 1-353); test: SPA, total against non-specific binding (500 nM unlabeled hMCH)
[2] = biological target: T2, human MCH-2R (human, UniProt Q969V1 1-340); test: as above
[3] = biological target: T1, human MCH-1R; test: ratio of the two SPA IC50s
[4] = biological target: T2, human MCH-2R; test: SPA, displacement of [125I]-[Phe13,Tyr19]-hMCH, MCH-2R membranes
Method: (§1) After equilibrating at room temperature for 3 hours, the plates were read in a TopCount (Packard, Meriden, Conn.). IC₅₀ calculations were performed using Prism 3.0 (GraphPad. Software, San Diego, Calif.). The IC₅₀ values were measured in three different experiments.

[5] = biological target: T1, human MCH-1R; test: SPA radioligand binding assay
Method: as §1

[6] = biological target: T2, human MCH-2R; test: SPA radioligand binding assay
Method: as §1

[7] = biological target: T1, human MCH-1R; test: cell-based or functional assay
[8] = biological target: T2, human MCH-2R; test: cell-based or functional assay
[9] = biological target: T1, human MCH-1R; test: cell-based or functional assay; remark: listed apart in the source
[10] = biological target: T2, human MCH-2R; test: cell-based or functional assay; remark: listed apart in the source
[11] = biological target: T1, human MCH-1R; test: SPA, displacement of [125I]-[Phe13,Tyr19]-hMCH, CHO/MCH-1R membranes
Method: as §1

[12] = biological target: T1, human MCH-1R; test: cell-based or functional assay; remark: listed apart in the source
[13] = biological target: T2, human MCH-2R; test: cell-based or functional assay; remark: listed apart in the source
[14] = biological target: T1, human MCH-1R; test: SPA, displacement of [125I]-[Phe13,Tyr19]-hMCH, CHO/MCH-1R membranes; remark: listed apart in the source
Method: as §1

[15] = biological target: T1, human MCH-1R; test: ratio of the two SPA IC50s; remark: listed apart in the source
Method: as §1

[16] = biological target: T2, human MCH-2R; test: SPA, displacement of [125I]-[Phe13,Tyr19]-hMCH, MCH-2R membranes; remark: listed apart in the source
Method: as §1

[17] = biological target: T1, human MCH-1R; test: cell-based or functional assay; remark: listed apart in the source
[18] = biological target: T2, human MCH-2R; test: cell-based or functional assay; remark: listed apart in the source
[19] = biological target: T1, human MCH-1R; test: SPA, displacement of [125I]-[Phe13,Tyr19]-hMCH, CHO/MCH-1R membranes
[20] = biological target: T1, human MCH-1R; test: ratio of the two SPA IC50s
[21] = biological target: T2, human MCH-2R; test: SPA, displacement of [125I]-[Phe13,Tyr19]-hMCH, MCH-2R membranes
[22] = biological target: T2, human MCH-2R; test: as above; remark: listed apart in the source
Method: as §1

[23] = biological target: T1, human MCH-1R; test: cell-based or functional assay; remark: listed apart in the source
[24] = biological target: T2, human MCH-2R; test: cell-based or functional assay; remark: listed apart in the source
[25] = biological target: T1, human MCH-1R; test: SPA, displacement of [125I]-[Phe13,Tyr19]-hMCH, CHO/MCH-1R membranes; remark: listed apart in the source
Method: as §1

[26] = biological target: T1, human MCH-1R; test: ratio of the two SPA IC50s; remark: listed apart in the source

T2 sequence (Q969V1 whole entry): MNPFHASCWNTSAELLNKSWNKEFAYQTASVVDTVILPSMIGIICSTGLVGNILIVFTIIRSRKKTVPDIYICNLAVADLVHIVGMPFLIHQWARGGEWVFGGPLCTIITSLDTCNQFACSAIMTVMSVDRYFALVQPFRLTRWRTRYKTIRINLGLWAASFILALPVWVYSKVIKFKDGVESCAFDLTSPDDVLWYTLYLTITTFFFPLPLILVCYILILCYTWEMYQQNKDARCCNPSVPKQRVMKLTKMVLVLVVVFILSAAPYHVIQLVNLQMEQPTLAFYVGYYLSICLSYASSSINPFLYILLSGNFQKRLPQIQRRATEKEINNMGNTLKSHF
T1 sequence (Q99705 whole entry): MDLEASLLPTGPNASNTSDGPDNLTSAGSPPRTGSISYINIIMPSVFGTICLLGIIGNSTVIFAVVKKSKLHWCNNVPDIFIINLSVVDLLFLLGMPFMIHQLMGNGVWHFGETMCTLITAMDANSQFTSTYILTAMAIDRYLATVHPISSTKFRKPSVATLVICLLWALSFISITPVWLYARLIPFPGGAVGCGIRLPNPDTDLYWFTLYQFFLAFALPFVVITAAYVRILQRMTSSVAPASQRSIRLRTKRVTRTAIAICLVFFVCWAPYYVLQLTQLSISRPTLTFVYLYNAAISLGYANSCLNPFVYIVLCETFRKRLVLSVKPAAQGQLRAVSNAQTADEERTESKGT

[^125I]-[Phe^13Tyr^19]-hMCH (peptide)
specific binding window [1]: > 6 ×
specific binding window [2]: 3 ×

B1: SEQ. ID. NO. 15 (Δ(X^6-Cys^7), Mpr^7 analog of Ac-hMCH(6-16)-NH2) (peptide)
peptide: XMLGRVYRPC
modifications: Ac-Arg^6 segment eliminated; Mpr, des-amino-cysteine (3-mercaptopropionic acid) at position 7 instead of Cys; C-terminal amide; disulfide ring
Selectivity 2/1 (MCH-2R/MCH-1R IC50 ratio) [3]: 500 ratio
IC50 [4]: 3500 nM
fold lower binding affinity than Ac-hMCH(6-16)-NH2 [5]: ~5 fold
IC50 [6]: > 3000 nM
fold lower activity than Ac-hMCH(6-16)-NH2 [7]: ~30 fold
EC50 [8]: > 3000 nM
Activation %, aequorin bioluminescence [9]: 92%
EC50, aequorin bioluminescence [9]: 610 nM
Selectivity 2/1 (MCH-2R/MCH-1R EC50 activity ratio) [9]: 5 ratio
Activation %, aequorin bioluminescence [10]: 47%
EC50, aequorin bioluminescence [10]: 3100 nM
IC50 [11]: 7 nM

B2: SEQ. ID. NO. 29 (D-Arg^6, Asn^10 analog of Ac-hMCH(6-16)-NH2) (peptide)
peptide: XCMLNRVYRPC
HELM: PEPTIDE1{[ac].[dR].C.M.L.N.R.V.Y.R.P.C.[am]}$PEPTIDE1,PEPTIDE1,3:R3-12:R3$$$V2.0
SMILES: CSCC[C@@H]1NC(=O)[C@@H](NC(=O)[C@@H](CCCNC(=N)N)NC(C)=O)CSSC[C@@H](C(N)=O)NC(=O)[C@@H]2CCCN2C(=O)[C@H](CCCNC(=N)N)NC(=O)[C@H](Cc2ccc(O)cc2)NC(=O)[C@H](C(C)C)NC(=O)[C@H](CCCNC(=N)N)NC(=O)[C@H](CC(N)=O)NC(=O)[C@H](CC(C)C)NC1=O
Activation %, aequorin bioluminescence [12]: 120%
EC50, aequorin bioluminescence [12]: 55 nM
Selectivity 2/1 (MCH-2R/MCH-1R EC50 activity ratio) [12]: 150 ratio
Activation %, aequorin bioluminescence [13]: 20%
EC50, aequorin bioluminescence [13]: 8400 nM
IC50 [14]: 0.5 nM
fold more selective as agonist for hMCH-1R than hMCH-2R [7]: ~150 fold
Selectivity 2/1 (MCH-2R/MCH-1R IC50 ratio) [15]: 6600 ratio
IC50 [16]: 3300 nM

B3: SEQ. ID. NO. 33 (D-Arg^6, Asn^10, Ala^14 analog of Ac-hMCH(6-16)-NH2) (peptide)
peptide: XCMLNRVYAPC
HELM: PEPTIDE1{[ac].[dR].C.M.L.N.R.V.Y.A.P.C.[am]}$PEPTIDE1,PEPTIDE1,3:R3-12:R3$$$V2.0
SMILES: CSCC[C@@H]1NC(=O)[C@@H](NC(=O)[C@@H](CCCNC(=N)N)NC(C)=O)CSSC[C@@H](C(N)=O)NC(=O)[C@@H]2CCCN2C(=O)[C@H](C)NC(=O)[C@H](Cc2ccc(O)cc2)NC(=O)[C@H](C(C)C)NC(=O)[C@H](CCCNC(=N)N)NC(=O)[C@H](CC(N)=O)NC(=O)[C@H](CC(C)C)NC1=O
Activation %, aequorin bioluminescence [12]: 109%
EC50, aequorin bioluminescence [12]: 260 nM
Activation %, aequorin bioluminescence [13]: 17%
EC50, aequorin bioluminescence [13]: > 10000 nM
IC50 [14]: 3.2 nM
fold more selective with respect to hMCH-2R [7]: ~50 fold
fold weaker agonist than the parent compound [7]: 5 fold

B4: SEQ. ID. NO. 30 (D-Arg^6, Gln^10 analog of Ac-hMCH(6-16)-NH2) (peptide)
peptide: XCMLQRVYRPC
HELM: PEPTIDE1{[ac].[dR].C.M.L.Q.R.V.Y.R.P.C.[am]}$PEPTIDE1,PEPTIDE1,3:R3-12:R3$$$V2.0
SMILES: CSCC[C@@H]1NC(=O)[C@@H](NC(=O)[C@@H](CCCNC(=N)N)NC(C)=O)CSSC[C@@H](C(N)=O)NC(=O)[C@@H]2CCCN2C(=O)[C@H](CCCNC(=N)N)NC(=O)[C@H](Cc2ccc(O)cc2)NC(=O)[C@H](C(C)C)NC(=O)[C@H](CCCNC(=N)N)NC(=O)[C@H](CCC(N)=O)NC(=O)[C@H](CC(C)C)NC1=O
Activation %, aequorin bioluminescence [12]: 74%
EC50, aequorin bioluminescence [12]: 2300 nM
Activation %, aequorin bioluminescence [13]: 11%
EC50, aequorin bioluminescence [13]: > 10000 nM
IC50 [14]: 6.1 nM
fold more selective as agonist for hMCH-1R than hMCH-2R [7]: ~150 fold
Selectivity 2/1 (MCH-2R/MCH-1R IC50 ratio) [15]: 230 ratio
IC50 [16]: 1400 nM

B5: SEQ. ID. NO. 32 (ΔAc, D-Arg^6, Nle^8, Asn^10 analog of Ac-hMCH(6-16)-NH2) (peptide)
peptide: [dR]C[Nle]LNRVYRPC-NH2
modifications: disulfide 2-11 (inferred)
Activation %, aequorin bioluminescence [17]: 130%
EC50, aequorin bioluminescence [17]: 350 nM
Selectivity 2/1 (MCH-2R/MCH-1R EC50 activity ratio) [17]: 4
Activation %, aequorin bioluminescence [18]: 53%
EC50, aequorin bioluminescence [18]: 1470 nM
IC50 [19]: 0.09 nM
Selectivity 2/1 (MCH-2R/MCH-1R IC50 ratio) [20]: 890
IC50 [21]: 250 nM

B6: SEQ. ID. NO. 34 (D-Cit^6, Asn^10 analog of Ac-hMCH(6-16)-NH2) (peptide)
peptide: Ac-[dCit]CMLNRVYRPC-NH2
modifications: disulfide 2-11 (inferred)
Activation %, aequorin bioluminescence [17]: 110%
EC50, aequorin bioluminescence [17]: 1460 nM
Activation %, aequorin bioluminescence [18]: 8%
EC50, aequorin bioluminescence [18]: > 10000 nM
IC50 [19]: 8.3 nM

B7: human MCH (peptide)
chain: DFDMLRCMLGRVYRPCWQV
modifications: disulfide 7-16 (inferred)
IC50 [4]: 0.5 nM
Activation %, aequorin bioluminescence [12]: 100%
Activation %, aequorin bioluminescence [13]: 100%
EC50, aequorin bioluminescence [13]: 30.7 nM
IC50 [16]: 0.5 nM
IC50 [22]: 0.5 nM
Activation %, aequorin bioluminescence [9]: 100%
Activation %, aequorin bioluminescence [10]: 100%
EC50, aequorin bioluminescence [10]: 30.7 nM
Activation %, aequorin bioluminescence [23]: 100%
Activation %, aequorin bioluminescence [24]: 100%
EC50, aequorin bioluminescence [24]: 30.7 nM

B8: SEQ. ID. NO. 14 (Ac-D-Cit^6 analog of Ac-hMCH(6-16)-NH2) (peptide)
peptide: XCMLGRVYRPC
modifications: N-terminal acetyl; D-Cit (D-citrulline) at position 6; C-terminal amide; disulfide cycle
IC50 [4]: 134 nM
Activation %, aequorin bioluminescence [9]: 91%
EC50, aequorin bioluminescence [9]: 920 nM
Activation %, aequorin bioluminescence [10]: 68%
EC50, aequorin bioluminescence [10]: 310 nM
IC50 [11]: 3 nM

B9: SEQ. ID. NO. 31 (D-Arg^6, Nle^8, Asn^10 analog of Ac-hMCH(6-16)-NH2) (peptide)
peptide: XCXLNRVYRPC
HELM: PEPTIDE1{[ac].[dR].C.[Nle].L.N.R.V.Y.R.P.C.[am]}$PEPTIDE1,PEPTIDE1,3:R3-12:R3$$$V2.0
SMILES: CCCC[C@@H]1NC(=O)[C@@H](NC(=O)[C@@H](CCCNC(=N)N)NC(C)=O)CSSC[C@@H](C(N)=O)NC(=O)[C@@H]2CCCN2C(=O)[C@H](CCCNC(=N)N)NC(=O)[C@H](Cc2ccc(O)cc2)NC(=O)[C@H](C(C)C)NC(=O)[C@H](CCCNC(=N)N)NC(=O)[C@H](CC(N)=O)NC(=O)[C@H](CC(C)C)NC1=O
Activation %, aequorin bioluminescence [12]: 130%
EC50, aequorin bioluminescence [12]: 240 nM
Selectivity 2/1 (MCH-2R/MCH-1R EC50 activity ratio) [12]: 23 ratio
Activation %, aequorin bioluminescence [13]: 23%
EC50, aequorin bioluminescence [13]: 5500 nM
IC50 [14]: 0.28 nM
Selectivity 2/1 (MCH-2R/MCH-1R IC50 ratio) [15]: 5700 ratio
IC50 [16]: 1600 nM

B10: Ac-hMCH(6-16)-NH2 (peptide)
peptide: Ac-RCMLGRVYRPC-NH2
modifications: disulfide 2-11 (inferred)
notes: also called ID; NO; parent compound
IC50 [4]: 2 nM
Activation %, aequorin bioluminescence [12]: 99%
EC50, aequorin bioluminescence [12]: 20 nM
IC50 [14]: 0.5 nM
IC50 [25]: 0.5 nM
IC50 [16]: 2 nM
IC50 [22]: 2 nM
Activation %, aequorin bioluminescence [9]: 99%
EC50, aequorin bioluminescence [9]: 20 nM
IC50 [11]: 1.4 nM
Activation %, aequorin bioluminescence [23]: 99%
EC50, aequorin bioluminescence [23]: 20 nM

B11: SEQ. ID. NO. 16 (Ala^10 analog of Ac-hMCH(6-16)-NH2) (peptide)
peptide: Ac-RCMLARVYRPC-NH2
modifications: disulfide 2-11 (inferred)
IC50 [25]: 0.44 nM
IC50 [22]: 7 nM
Selectivity 2/1 (MCH-2R/MCH-1R IC50 ratio) [26]: 16 ratio
Activation %, aequorin bioluminescence [23]: 121%
EC50, aequorin bioluminescence [23]: 51 nM
Selectivity 2/1 (MCH-2R/MCH-1R EC50 activity ratio) [23]: 0.29 ratio
Activation %, aequorin bioluminescence [24]: 102%
EC50, aequorin bioluminescence [24]: 15 nM

B12: SEQ. ID. NO. 17 (Leu^10 analog of Ac-hMCH(6-16)-NH2) (peptide)
peptide: Ac-RCMLLRVYRPC-NH2
modifications: disulfide 2-11 (inferred)
IC50 [25]: 0.03 nM
IC50 [22]: 27 nM
Selectivity 2/1 (MCH-2R/MCH-1R IC50 ratio) [26]: 1900 ratio
Activation %, aequorin bioluminescence [23]: 123%
EC50, aequorin bioluminescence [23]: 32 nM
Selectivity 2/1 (MCH-2R/MCH-1R EC50 activity ratio) [23]: 1.8 ratio
Activation %, aequorin bioluminescence [24]: 74%
EC50, aequorin bioluminescence [24]: 57 nM
